Source: IntAct's records for PubMed 21382479

B1: Caveolin-1 (Homo sapiens), Q03135 (parent)
chain: MSGGKYVDSEGHLYTVPIREQGNIYKPNNKAMADELSEKQVYDAHTKEIDLVNRDPKHLNDDVVKIDFEDVIAEPEGTHSFDGIWKASFTTFTVTKYWFYRLLSALFGIPMALIWGIYFAILSFLHIWAVVPCIKSFLIEIQCISRVYSIYVHTVCDPLFEAVGKIFSNVRINLQKEI
partner: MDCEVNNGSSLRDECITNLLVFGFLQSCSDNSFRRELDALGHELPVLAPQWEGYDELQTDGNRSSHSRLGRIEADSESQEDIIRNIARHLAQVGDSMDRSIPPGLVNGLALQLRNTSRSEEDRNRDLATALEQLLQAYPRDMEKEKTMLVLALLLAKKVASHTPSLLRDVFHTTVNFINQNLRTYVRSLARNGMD

Variants of: B1
Conditions: with bid_human BID
For MSGGKYVDSEGHLFTVPIREQGNIYKPNNKAMADELSEKQVYDAHTKEIDLVNRDPKHLNDDVVKIDFEDVIAEPEGTHSFDGIWKASFTTFTVTKYWFYRLLSALFGIPMALIWGIYFAILSFLHIWAVVPCIKSFLIEIQCISRVYSIYVHTVCDPLFEAVGKIFSNVRINLQKEI [Y14F], the “effect of a mutation on the interaction” value was “disrupting interaction”.
